{"source": "patent US9296811B2", "about": "“Methods for treating a tumor using an antibody that specifically binds HMW-MAA” (University of Pittsburgh—Of the Commonwealth System of …, priority 2010, dated 2016)", "key": {"[1]": {"tested_on": "melanoma cell lines (Colo38, M21, SK-MEL-37, MV3, 1520)", "experiment": "MTT cell growth assay, vemurafenib and C21", "assay_type": "cell-based, human"}, "[2]": {"biological_target": "V600E mutated BRAF (Homo sapiens, UniProt P15056, V600E)", "sequence (P15056 whole entry V600E)": "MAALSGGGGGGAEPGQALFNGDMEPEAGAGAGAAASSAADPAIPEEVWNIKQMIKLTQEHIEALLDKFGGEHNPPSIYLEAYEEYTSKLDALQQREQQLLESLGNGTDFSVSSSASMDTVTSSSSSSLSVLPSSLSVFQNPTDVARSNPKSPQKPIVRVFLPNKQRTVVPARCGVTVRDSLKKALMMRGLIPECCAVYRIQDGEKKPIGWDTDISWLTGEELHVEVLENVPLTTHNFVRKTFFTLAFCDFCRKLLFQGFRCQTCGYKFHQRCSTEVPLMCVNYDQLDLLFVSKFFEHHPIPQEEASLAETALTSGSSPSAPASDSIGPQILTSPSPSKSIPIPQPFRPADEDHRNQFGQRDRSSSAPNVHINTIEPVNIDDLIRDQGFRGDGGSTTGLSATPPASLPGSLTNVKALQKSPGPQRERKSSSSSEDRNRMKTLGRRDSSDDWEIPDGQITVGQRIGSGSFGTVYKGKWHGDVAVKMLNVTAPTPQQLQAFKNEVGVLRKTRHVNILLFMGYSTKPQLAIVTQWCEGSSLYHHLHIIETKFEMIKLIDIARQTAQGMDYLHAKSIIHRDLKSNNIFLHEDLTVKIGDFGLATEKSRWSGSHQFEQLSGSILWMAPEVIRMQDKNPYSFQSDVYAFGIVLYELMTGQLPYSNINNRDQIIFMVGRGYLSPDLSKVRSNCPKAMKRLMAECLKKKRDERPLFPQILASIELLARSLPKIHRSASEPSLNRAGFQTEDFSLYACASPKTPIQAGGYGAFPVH", "settings": "cited from earlier work"}, "[3]": {"tested_on": "normal human organ tissues", "experiment": "IHC staining of normal human organ tissue microarray with C21 (cross-reactivity)", "assay_type": "binding", "settings": "for IHC Result: normal human tissue, C21 4 μg/mL"}, "[4]": {"tested_on": "human melanocytic lesions", "experiment": "Immunohistochemical staining of frozen sections of human melanocytic lesions with C21", "assay_type": "binding", "settings": "benign pigmented nevus, primary melanoma, metastatic melanoma", "source_text": "FIG. 6A-6F. Digital images of immunohistochemical staining of frozen sections of human melanocytic lesions with C21."}, "[5]": {"biological_target": "T1, CSPG4 (Homo sapiens, UniProt Q6UVK1)", "T1 construct": "Representative FACS analysis of CSPG4 expression by melanoma cell lines using CSPG4-specific C21 and PE-conjugated anti-human IgG; endogenous in cells; host or cells: established (1520, 836, Colo38, M21, MEL526, MV3, SK-MEL-28, SK-MEL-37, WM1158) and patient-derived (Mel-JR, Mel-KD, pre/post vemurafenib) human melanoma cell lines", "T1 sequence (Q6UVK1 30-2322)": "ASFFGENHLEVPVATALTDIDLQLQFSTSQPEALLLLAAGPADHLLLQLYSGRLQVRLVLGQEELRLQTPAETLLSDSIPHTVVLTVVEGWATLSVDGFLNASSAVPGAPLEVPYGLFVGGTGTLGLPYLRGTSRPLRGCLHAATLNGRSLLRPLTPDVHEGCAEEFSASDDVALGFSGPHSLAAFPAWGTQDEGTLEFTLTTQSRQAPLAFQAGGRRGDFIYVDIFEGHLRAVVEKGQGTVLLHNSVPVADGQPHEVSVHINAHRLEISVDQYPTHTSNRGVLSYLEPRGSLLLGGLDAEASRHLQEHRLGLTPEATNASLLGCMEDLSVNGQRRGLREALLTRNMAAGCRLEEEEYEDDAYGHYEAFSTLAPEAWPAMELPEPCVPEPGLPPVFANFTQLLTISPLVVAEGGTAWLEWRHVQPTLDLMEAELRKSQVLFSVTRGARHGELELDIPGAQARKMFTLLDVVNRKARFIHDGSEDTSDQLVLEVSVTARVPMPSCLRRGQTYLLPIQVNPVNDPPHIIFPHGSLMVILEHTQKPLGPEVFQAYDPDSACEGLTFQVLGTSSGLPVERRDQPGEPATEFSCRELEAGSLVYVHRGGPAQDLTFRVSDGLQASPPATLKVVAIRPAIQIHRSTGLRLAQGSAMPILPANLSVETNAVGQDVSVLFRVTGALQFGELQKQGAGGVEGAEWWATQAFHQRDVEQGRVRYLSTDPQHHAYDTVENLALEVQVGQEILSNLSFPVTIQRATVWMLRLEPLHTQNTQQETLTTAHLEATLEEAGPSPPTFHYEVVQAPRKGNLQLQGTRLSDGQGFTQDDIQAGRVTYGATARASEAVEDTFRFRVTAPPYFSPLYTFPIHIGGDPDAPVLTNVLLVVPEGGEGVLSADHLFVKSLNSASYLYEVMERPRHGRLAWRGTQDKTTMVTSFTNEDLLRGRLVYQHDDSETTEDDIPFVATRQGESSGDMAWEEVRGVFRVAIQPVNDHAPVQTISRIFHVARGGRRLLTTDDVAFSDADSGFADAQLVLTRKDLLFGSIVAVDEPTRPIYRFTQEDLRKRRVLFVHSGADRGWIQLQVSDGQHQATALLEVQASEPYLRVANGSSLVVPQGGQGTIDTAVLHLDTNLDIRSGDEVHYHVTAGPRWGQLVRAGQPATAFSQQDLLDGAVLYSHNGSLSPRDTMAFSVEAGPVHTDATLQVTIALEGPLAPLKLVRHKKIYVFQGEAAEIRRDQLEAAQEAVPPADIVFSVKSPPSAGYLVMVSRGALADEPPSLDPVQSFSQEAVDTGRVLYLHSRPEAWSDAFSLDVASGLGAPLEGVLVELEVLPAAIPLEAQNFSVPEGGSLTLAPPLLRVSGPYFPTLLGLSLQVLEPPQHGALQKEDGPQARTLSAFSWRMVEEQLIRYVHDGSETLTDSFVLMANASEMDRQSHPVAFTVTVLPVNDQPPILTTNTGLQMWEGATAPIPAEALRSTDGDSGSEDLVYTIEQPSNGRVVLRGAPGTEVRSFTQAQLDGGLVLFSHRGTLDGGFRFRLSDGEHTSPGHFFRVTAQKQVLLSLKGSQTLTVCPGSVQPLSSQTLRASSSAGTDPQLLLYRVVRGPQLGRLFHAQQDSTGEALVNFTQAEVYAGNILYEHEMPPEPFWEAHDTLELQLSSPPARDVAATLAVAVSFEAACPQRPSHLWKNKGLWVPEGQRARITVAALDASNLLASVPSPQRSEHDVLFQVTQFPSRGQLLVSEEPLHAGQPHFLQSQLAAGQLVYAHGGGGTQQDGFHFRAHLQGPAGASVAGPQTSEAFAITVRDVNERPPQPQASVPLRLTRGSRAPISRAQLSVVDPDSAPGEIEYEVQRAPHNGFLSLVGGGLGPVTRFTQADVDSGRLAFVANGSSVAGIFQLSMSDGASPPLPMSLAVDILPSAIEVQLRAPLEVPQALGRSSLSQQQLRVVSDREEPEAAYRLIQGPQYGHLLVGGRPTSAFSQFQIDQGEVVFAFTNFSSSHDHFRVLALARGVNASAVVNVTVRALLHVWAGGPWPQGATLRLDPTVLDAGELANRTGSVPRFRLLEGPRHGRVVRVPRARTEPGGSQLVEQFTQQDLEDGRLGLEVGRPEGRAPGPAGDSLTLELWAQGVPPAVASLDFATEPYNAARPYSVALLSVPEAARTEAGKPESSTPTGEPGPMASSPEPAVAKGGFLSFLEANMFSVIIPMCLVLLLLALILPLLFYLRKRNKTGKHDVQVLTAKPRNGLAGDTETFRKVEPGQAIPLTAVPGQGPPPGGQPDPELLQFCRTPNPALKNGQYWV", "experiment": "FACS reactivity of C21 with established and patient-derived melanoma cell lines", "assay_type": "binding", "settings": "established or patient-derived lines containing BRAF^V600E or BRAF^WT", "source_text": "FIG. 5A to 5B. […] (FIG. 5A) Representative FACS analysis of CSPG4 expression by melanoma cell lines using CSPG4-specific C21 and PE-conjugated anti-human IgG. 119 was used as an isotype control. (FIG. 5B) A panel of melanoma cell lines bound by C21. *Percentage of CSPG4^+ cells. MFI: mean fluorescence intensity. The top section (1520, 836, Colo38, M21, MEL526, MV3, KS-MEL-28, SK-MEL-37, and WM1158) are established melanoma cell lines; The bottom section (MeI-JR(pre), MEL-JR(post), Mel-KD(pre), and Mel-KD(post)) are patient-derived human melanoma cell lines; pre: before vemurafenib (PLX4032) treatment, post: after vemurafenib (PLX4032) treatment.\nA fully human mAb, scFc-FcC21 was produced by combining the HMW-MAA (CSPG4)-specific single chain of variable regions of heavy and light chains (scFv) to a Fc portion of IgG1 at the DNA level."}, "[6]": {"tested_on": "BRAF^V600E and BRAF^WT melanoma cell", "experiment": "MTT growth inhibition of melanoma cell lines by C21", "assay_type": "cell-based, human", "settings": "BRAF^V600E and BRAF^WT cells, 3, 5 days", "description": "FIG. 7. […] The indicated cells were seeded in triplicate in 96-well plates (2.5×10^3/well) and treated for 3, 5 days with C21 and 119 in RPMI 1640/1% FCS. Living cells were detected using MTT assays. The results are expressed as percent inhibition of cell growth, with untreated cells representing 100%. Mean values±SD were calculated from two independent experiments."}, "[7]": {"tested_on": "human melanoma BRAF(V600E)/CSPG4^+ xenografts", "experiment": "Survival of mice bearing M21 xenografts, vemurafenib and C21", "assay_type": "in vivo", "settings": "M21 xenograft; vemurafenib 25 mg/kg orally twice a day for 13 days; C21 1 mg/mouse i.v. twice a week for 2 weeks; vs vemurafenib alone or vemurafenib+119", "description": "FIG. 11. Improved response duration for vemurafenib in vivo. Human melanoma M21^BRAF(V600E)/CSPG4+ cells (2×10^6/mouse) were injected subcutaneously (s.c.) into 20 mice (day 0). By day 7, tumors were measurable, and mice were divided into four groups (5 mice/group) using a stratified randomization strategy. Mice received either vemurafenib, vemurafenib+C21, vemurafenib+119, or were untreated. Vemurafenib was delivered orally (25 mg/kg) twice a day for 13 days, while C21 or 119 were injected i.v. (1 mg/mouse) twice a week for 2 weeks. All mice were monitored for survival."}, "[8]": {"tested_on": "melanoma cells", "experiment": "Prevention/delay of acquired resistance of melanoma cells to vemurafenib in vitro", "assay_type": "cell-based, human", "description": "FIG. 13. Prevention/delay of acquired resistance of melanoma cells to vemurafenib. Melanoma cells were seeded in 6-well plates (2.5×10^4 cells/well) containing 2 ml/well RPMI 1640/10% FCS. […] Cells received fresh growth medium every 4 days containing the appropriate treatment concentrations, for 28 days. Cells in randomly selected fields were photographed at different timepoints using a Zeiss Inverted Fluorescence Microscope\nIn addition, the results presented in FIG. 13 evidences that treatment with C21 delayed resistance to vemurafenib up to 28 days in vitro, at which point the rate of cell growth was unaffected by the presence or absence of vemurafenib (10 μM) in the absence of C21."}, "[9]": {"tested_on": "EGFR and PDGFRα", "experiment": "Activation of EGFR and PDGFRα in melanoma cells after C21", "assay_type": "cell-based, human", "settings": "acquired resistance to BRAF inhibitor"}}, "note": "Entries after “also recorded” stand apart in the source; their conditions may differ.", "data": [{"molecule": "CCCS(=O)(=O)Nc1ccc(F)c(C(=O)c2c[nH]c3ncc(-c4ccc(Cl)cc4)cc23)c1F", "note": "[vemurafenib, Vemurafenib]", "values": [{"measurement": "cell growth", "setting": "[1]; BRAF^WT MV3 cells, vemurafenib 500 nM", "value": "did not affect"}, {"measurement": "response rate", "setting": "[2]; 32 BRAF mutated advanced melanoma patients, phase II study (Flaherty et al 2010)", "value": 70, "unit": "%"}, {"measurement": "tumor regression and overall survival", "setting": "[2]; Phase I clinical trials, advanced melanoma patients with the V600E BRAF mutation", "value": "effective in promoting tumor regression and increasing overall survival"}, {"measurement": "median duration of response", "setting": "[2]; melanoma patients treated with BRAF selective inhibitor", "value": "~8", "unit": "months"}]}, {"molecule": "C21: fully human mAb: HMW-MAA (CSPG4)-specific scFv combined to a Fc portion of IgG1; SEQ ID NOs: 3 and 4 (antibody, listed as Homo sapiens, V domains shown) VH: QVQLVQSGAEVKKPGSSVKVSCKASGGTFSSYAISWVRQAPGQGLEWMGGIIPIFGTANYAQKFQGRVTITADESTSTAYMELSSLRSDDTAVYYCARALDPITFDSWGQGTLVTVSR VL: SELTQDPAVSVALGQTVRITCQGDSLRSYYASWYQQKPGQAPVLVIYGKNNRPSGIPDRFSGSSSGNTASLTITGAQAEDEADYYCNSRDSSGNHVVFGGGTKLTVLGRS", "values": [{"measurement": "IHC Result", "setting": "[3]; Cerebellum", "value": "negative"}, {"measurement": "IHC Result", "setting": "[3]; Cerebrum", "value": "negative"}, {"measurement": "IHC Result", "setting": "[3]; Colon", "value": "negative"}, {"measurement": "IHC Result", "setting": "[3]; Esophagus", "value": "negative"}, {"measurement": "recognition of a panel of normal human organ tissues", "setting": "[3]; FIG. 6, Table 2", "value": "not a panel of normal human organ tissues"}, {"measurement": "IHC Result", "setting": "[3]; Heart", "value": "negative"}, {"measurement": "IHC Result", "setting": "[3]; Kidney", "value": "negative"}, {"measurement": "IHC Result", "setting": "[3]; Liver", "value": "negative"}, {"measurement": "IHC Result", "setting": "[3]; Lung", "value": "negative"}, {"measurement": "IHC Result", "setting": "[3]; Lymph node", "value": "negative"}, {"measurement": "IHC Result", "setting": "[3]; Ovary", "value": "negative"}, {"measurement": "IHC Result", "setting": "[3]; Pancreas", "value": "negative"}, {"measurement": "IHC Result", "setting": "[3]; Peripheral nerve", "value": "negative"}, {"measurement": "IHC Result", "setting": "[3]; Pituitary gland", "value": "negative"}, {"measurement": "IHC Result", "setting": "[3]; Placenta", "value": "negative"}, {"measurement": "IHC Result", "setting": "[3]; Prostate", "value": "negative"}, {"measurement": "IHC Result", "setting": "[3]; Salivary gland", "value": "negative"}, {"measurement": "IHC Result", "setting": "[3]; Skeletal muscle", "value": "negative"}, {"measurement": "IHC Result", "setting": "[3]; Skin", "value": "negative"}, {"measurement": "IHC Result", "setting": "[3]; Small intestine", "value": "negative"}, {"measurement": "IHC Result", "setting": "[3]; Smooth muscle", "value": "negative"}, {"measurement": "IHC Result", "setting": "[3]; Spinal cord", "value": "negative"}, {"measurement": "IHC Result", "setting": "[3]; Spleen", "value": "negative"}, {"measurement": "IHC Result", "setting": "[3]; Stomach", "value": "negative"}, {"measurement": "IHC Result", "setting": "[3]; Testis", "value": "negative"}, {"measurement": "IHC Result", "setting": "[3]; Thymus", "value": "negative"}, {"measurement": "IHC Result", "setting": "[3]; Thyroid gland", "value": "negative"}, {"measurement": "IHC Result", "setting": "[3]; Ureter", "value": "negative"}, {"measurement": "IHC Result", "setting": "[3]; Uterine cervix", "value": "negative"}, {"measurement": "IHC staining of melanocytic lesions", "setting": "[4]", "value": "homogeneous cytoplasmic and cytoplasmic membrane staining"}, {"measurement": "reactivity with human melanoma cell lines", "setting": "[5]", "value": "Broad reactivity"}, {"measurement": "reactivity with human melanoma cell lines", "setting": "[5]; listed as scFv-FcC21 (C21)", "value": "able to recognize"}, {"measurement": "inhibition of melanoma cell growth in vitro", "setting": "[6]", "value": "Growth inhibition; also recorded: inhibited"}, {"measurement": "cell growth", "setting": "[1]; 1520 cells negative for CSPG4, C21 0.1 mg/mL", "value": "did not affect"}, {"measurement": "survival of mice", "setting": "[7]", "value": "prolonging the survival"}, {"measurement": "delay of resistance to vemurafenib in vitro", "setting": "[8]; C21 0.1 mg/mL with vemurafenib increasing 500 to 10,000 nM", "value": "up to 28 days"}, {"measurement": "onset of acquired resistance to vemurafenib", "setting": "[8]; melanoma cell line 1520, BRAF^V600E positive, CSPG4 negative", "value": "did not delay"}, {"measurement": "activation of EGFR and PDGFRα", "setting": "[9]", "value": "down-regulating activation"}]}]}
